Reference: US20150141617A1, “PRODUCTION AND PURIFICATION OF ACTIVE EUKARYOTIC FORMYLGLYCINEGENERATING ENZYME (FGE) VARIANTS” (Universität Bielefeld, priority 2013, published 2015)

Key:
human PACE4 = target: T1, human PACE4 (Homo sapiens, UniProt P29122); experiment: FGE processing in CHO-FD11 Tet-On cells co-expressing PACE4; assay type: cell-based; settings: PACE4 coexpression
T1 construct: expressed in transfected cells; host or cells: CHO-FD11 Tet-On cells, transient co-transfection with pBI-FGE-HA
T1 sequence (P29122 150-969): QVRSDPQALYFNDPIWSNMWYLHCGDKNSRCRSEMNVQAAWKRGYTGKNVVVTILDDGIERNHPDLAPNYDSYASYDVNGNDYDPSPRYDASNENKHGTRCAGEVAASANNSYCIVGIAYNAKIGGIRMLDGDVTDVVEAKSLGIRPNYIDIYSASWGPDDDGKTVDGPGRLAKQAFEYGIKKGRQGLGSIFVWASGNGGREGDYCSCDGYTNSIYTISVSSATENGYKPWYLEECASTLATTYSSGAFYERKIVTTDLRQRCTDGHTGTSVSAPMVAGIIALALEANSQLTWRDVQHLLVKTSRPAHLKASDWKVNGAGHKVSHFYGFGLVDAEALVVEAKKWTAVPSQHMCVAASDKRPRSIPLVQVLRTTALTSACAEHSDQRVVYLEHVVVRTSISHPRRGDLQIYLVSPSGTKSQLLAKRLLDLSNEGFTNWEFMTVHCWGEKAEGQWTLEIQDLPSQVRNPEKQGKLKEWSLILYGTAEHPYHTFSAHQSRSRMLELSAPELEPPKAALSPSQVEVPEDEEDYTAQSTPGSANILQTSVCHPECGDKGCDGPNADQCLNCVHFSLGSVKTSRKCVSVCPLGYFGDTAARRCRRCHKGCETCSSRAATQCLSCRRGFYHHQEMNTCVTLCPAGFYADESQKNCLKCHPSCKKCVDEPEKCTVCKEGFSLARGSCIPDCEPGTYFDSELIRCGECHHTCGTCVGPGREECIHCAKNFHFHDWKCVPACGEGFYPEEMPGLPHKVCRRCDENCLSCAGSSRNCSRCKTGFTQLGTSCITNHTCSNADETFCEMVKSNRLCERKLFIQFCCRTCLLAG
Source text: (§1) The resulting constructs were verified by full-length sequencing of the coding region to exclude any PCR prone errors. Plasmids for expression of the PCs encoding human furin (Gene ID 5045), human PACE4 (=PCSK6, Gene ID 5046), murine […] (=Pcsk5, Gene ID 18552) and rat PC7 (=Pcsk7, Gene ID 29606) were kindly provided by Abdel-Majid Khatib (18). Note that the PC cDNAs were encoded as pIRES constructs coding also for enhanced green fluorescence protein (EGFP) such that EGFP expression levels serve as a measure of the expression levels of PCs.
(§2) 3 μg of pSB-FGE-RGS-His6 vector was used for single transfections of HT1080, HeLa, HEK 293, BHK and CHO cells. Conditioned medium was collected after 24 h and centrifuged (500×g, 5 min) Cells were washed once with PBS, treated with trypsin (Lonza) and pelleted by 250×g to remove the medium. Cell pellets were resuspended in PBS (pH 7.4) containing protease inhibitor (PI) cocktail (Sigma) and lysed by sonication 3×10 s on ice. For co-expression of FGE with one of the PCs in CHO-FD11 Tet-On cells 2 μg of pBI-FGE-HA and 2 μg of the plasmids encoding PCs (see above) were used for transient transfection. In case of transient transfections using pBI-vector constructs the protein expression was induced by replenishing the medium with medium containing 2 μg/mL doxycycline (BD Biosciences) at 5 h post-transfection. […]

PC5a = target: T2, PC5a (Mus musculus, UniProt Q04592); experiment: FGE processing in CHO-FD11 Tet-On cells co-expressing PC5a; assay type: cell-based, murine; settings: PC5a coexpression
T2 construct: expressed in transfected cells; host or cells: CHO-FD11 Tet-On cells, transient co-transfection with pBI-FGE-HA
T2 sequence (Q04592 117-915 isoform Q04592-2 limits assumed): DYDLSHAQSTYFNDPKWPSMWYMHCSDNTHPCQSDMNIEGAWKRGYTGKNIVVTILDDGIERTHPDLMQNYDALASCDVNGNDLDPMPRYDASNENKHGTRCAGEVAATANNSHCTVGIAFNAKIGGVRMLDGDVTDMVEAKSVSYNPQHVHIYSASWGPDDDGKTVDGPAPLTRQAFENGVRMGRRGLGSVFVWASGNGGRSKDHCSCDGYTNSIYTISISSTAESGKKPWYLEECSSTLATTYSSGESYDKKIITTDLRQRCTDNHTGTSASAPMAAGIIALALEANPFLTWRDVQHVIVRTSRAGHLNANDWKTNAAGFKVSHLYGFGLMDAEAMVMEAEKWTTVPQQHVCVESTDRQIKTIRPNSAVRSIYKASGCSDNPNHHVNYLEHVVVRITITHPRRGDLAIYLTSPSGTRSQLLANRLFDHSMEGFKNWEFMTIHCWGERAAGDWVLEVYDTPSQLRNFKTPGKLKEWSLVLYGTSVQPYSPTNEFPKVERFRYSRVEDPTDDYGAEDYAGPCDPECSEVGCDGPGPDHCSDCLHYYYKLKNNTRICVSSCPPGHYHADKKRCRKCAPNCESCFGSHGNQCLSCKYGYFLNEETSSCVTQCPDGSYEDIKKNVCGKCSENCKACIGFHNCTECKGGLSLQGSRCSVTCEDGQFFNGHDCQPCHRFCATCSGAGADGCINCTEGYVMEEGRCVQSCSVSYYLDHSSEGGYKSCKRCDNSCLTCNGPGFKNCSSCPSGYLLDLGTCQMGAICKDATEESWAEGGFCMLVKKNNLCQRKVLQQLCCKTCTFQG
Source text: as §1, §2

B1: FGE: human wild type full length formylglycine generating enzyme with RYSR furin cleavage motif, SEQ ID NO:2 (protein)
chain: ADEFSQEAGTGAGAGSLAGSCGCGTPQRPGAHGSSAAAHRYSREANAPGPVPGERQLAHSKMVPIPAGVFTMGTDDPQIKQDGEAPARRVTIDAFYMDAYEVSNTEFEKFVNSTGYLTEAEKFGDSFVFEGMLSEQVKTNIQQAVAAAPWWLPVKGANWRHPEGPDSTILHRPDHPVLHVSWNDAVAYCTWAGKRLPTEAEWEYSCRGGLHNRLFPWGNKLQPKGQHYANIWQGEFPVTNTGEDGFQGTAPVDAFPPNGYGLYNIVGNAWEWTSDWWTVHHSVEETLNPKGPPSGKDRVKKGGSYMCHRSYCYRYRCAARSQNTPDSSASNLGFRCAADRLPTMDSGRGSHHHHHHH
modifications: cloned matured acitve full length FGE with 6x His tag on C-terminus
Human PACE4
  processing of FGE: low efficiency
PC5a
  processing of FGE: low efficiency
